Where a chain is given by its changes, count along the chain named.
Key:
Assay in all cases: holdup assay
Parameters in all cases: key: below the threshold = too weak to quantify, mostly under pKd 3.1 to 4
Settings in all cases: plain residues with an end cap or a label only (N-terminal biotin on a linker: ado-ado)
APBA1_2, Q02410 = target: T1, APBA1_2, Q02410
T1 sequence (Q02410 742-832, limits assumed, looked up): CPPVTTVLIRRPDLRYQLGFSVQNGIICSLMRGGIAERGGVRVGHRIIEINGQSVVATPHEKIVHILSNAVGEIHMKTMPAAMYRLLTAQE

GRASP, Q7Z6J2 = target: GRASP, Q7Z6J2
Inadl_10, Q8NI35 = target: Inadl_10, Q8NI35
DLG5_1, Q8TDM6 = target: DLG5_1, Q8TDM6
SNTG2, Q9NY99 = target: T2, SNTG2, Q9NY99
T2 sequence (Q9NY99 68-166, limits assumed, looked up): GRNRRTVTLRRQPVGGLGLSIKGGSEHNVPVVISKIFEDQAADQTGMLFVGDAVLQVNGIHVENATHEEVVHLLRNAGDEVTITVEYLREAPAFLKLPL

DLG3_1, Q92796 = target: T3, DLG3_1, Q92796
T3 sequence (Q92796 125-227, limits assumed, looked up): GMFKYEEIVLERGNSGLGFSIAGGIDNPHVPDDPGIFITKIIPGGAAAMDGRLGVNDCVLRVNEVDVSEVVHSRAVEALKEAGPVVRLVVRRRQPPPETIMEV

LIMK2, P53671 = target: LIMK2, P53671
APBA2_1, Q99767 = target: T4, APBA2_1, Q99767
T4 sequence (Q99767 563-664, limits assumed, looked up): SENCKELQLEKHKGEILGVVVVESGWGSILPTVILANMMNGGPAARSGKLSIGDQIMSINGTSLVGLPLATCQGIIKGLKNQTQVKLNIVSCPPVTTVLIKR

LNX1_1, Q8TBB1 = target: LNX1_1, Q8TBB1
RAPGEF6, Q8TEU7 = target: T5, RAPGEF6, Q8TEU7
T5 sequence (Q8TEU7 525-625, limits assumed, looked up): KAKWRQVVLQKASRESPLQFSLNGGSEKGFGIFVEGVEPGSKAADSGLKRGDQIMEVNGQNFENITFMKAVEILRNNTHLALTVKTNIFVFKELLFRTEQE

TX1BP3, O14907 = target: T6, TX1BP3, O14907
T6 sequence (O14907 10-122, limits assumed, looked up): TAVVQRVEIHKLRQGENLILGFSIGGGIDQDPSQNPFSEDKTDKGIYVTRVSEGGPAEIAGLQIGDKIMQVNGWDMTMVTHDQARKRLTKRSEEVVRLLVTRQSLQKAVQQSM

LIN7A, O14910 = target: T7, LIN7A, O14910
T7 sequence (O14910 103-200, limits assumed, looked up): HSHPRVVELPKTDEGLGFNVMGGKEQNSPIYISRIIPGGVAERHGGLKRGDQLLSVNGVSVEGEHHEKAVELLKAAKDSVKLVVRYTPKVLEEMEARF

PCLO, Q9Y6V0 = target: T8, PCLO, Q9Y6V0
T8 sequence (Q9Y6V0 4491-4600, limits assumed, looked up): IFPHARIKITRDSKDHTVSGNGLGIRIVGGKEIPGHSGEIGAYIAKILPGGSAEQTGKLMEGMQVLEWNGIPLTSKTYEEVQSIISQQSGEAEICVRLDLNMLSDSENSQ

Inadl_9, Q8NI35 = target: Inadl_9, Q8NI35
MAGI2_6, Q86UL8 = target: MAGI2_6, Q86UL8
FRMPD2_3, Q68DX3 = target: FRMPD2_3, Q68DX3
LIN7C, Q9NUP9 = target: T9, LIN7C, Q9NUP9
T9 sequence (Q9NUP9 88-185, limits assumed, looked up): T7 sequence (O14910 103-200, limits assumed, looked up) with D13E, V20I, V40I, E42D, K77Q, D78G, S79K, A96S

LNX1_2, Q8TBB1 = target: LNX1_2, Q8TBB1
DLG1_2, Q12959 = target: DLG1_2, Q12959
GRIP2_7, Q9C0E4 = target: GRIP2_7, Q9C0E4
DLG2_3, Q15700 = target: DLG2_3, Q15700
AHNAK1, Q09666 = target: AHNAK1, Q09666
FRMPD3, Q5JV73 = target: FRMPD3, Q5JV73
MAGI3_2, Q5TCQ9 = target: MAGI3_2, Q5TCQ9
ARHGEF11, O15085 = target: T10, ARHGEF11, O15085
T10 sequence (O15085 42-136, limits assumed, looked up): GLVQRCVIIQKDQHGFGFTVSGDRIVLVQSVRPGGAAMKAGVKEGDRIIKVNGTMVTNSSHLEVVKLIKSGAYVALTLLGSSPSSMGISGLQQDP

PARD3B_1, Q8TEW8 = target: T11, PARD3B_1, Q8TEW8
T11 sequence (Q8TEW8 196-299, limits assumed, looked up): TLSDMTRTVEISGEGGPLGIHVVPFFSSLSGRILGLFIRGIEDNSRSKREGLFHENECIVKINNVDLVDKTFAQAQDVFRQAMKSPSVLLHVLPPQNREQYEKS

HTRA2, O43464 = target: HTRA2, O43464
Sequence of HTRA2, O43464 (O43464 355-458): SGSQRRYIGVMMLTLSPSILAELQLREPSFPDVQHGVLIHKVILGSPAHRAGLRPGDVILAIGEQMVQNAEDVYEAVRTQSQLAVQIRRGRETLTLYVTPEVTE

Sequence of MAGI3_2, Q5TCQ9 (Q5TCQ9 398-503): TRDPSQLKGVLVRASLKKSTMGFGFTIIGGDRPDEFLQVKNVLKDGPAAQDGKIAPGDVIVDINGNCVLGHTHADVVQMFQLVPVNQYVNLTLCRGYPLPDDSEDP
Sequence of GRIP2_7, Q9C0E4 (Q9C0E4 934-1023): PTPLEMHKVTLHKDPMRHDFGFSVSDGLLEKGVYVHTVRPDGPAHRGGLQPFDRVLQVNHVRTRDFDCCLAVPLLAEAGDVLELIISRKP
Sequence of DLG1_2, Q12959 (Q12959 314-412): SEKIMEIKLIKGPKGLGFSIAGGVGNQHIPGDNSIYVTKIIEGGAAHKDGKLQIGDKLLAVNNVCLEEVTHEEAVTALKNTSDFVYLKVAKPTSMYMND
Sequence of LIMK2, P53671 (P53671 143-248): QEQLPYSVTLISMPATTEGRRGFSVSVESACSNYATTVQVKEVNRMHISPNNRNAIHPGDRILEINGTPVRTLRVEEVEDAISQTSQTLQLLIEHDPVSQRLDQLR
Sequence of FRMPD2_3, Q68DX3 (Q68DX3 1073-1166): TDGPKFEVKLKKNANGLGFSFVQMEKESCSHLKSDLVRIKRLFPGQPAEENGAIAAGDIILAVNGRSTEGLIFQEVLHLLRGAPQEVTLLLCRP
Sequence of Inadl_9, Q8NI35 (Q8NI35 1530-1615): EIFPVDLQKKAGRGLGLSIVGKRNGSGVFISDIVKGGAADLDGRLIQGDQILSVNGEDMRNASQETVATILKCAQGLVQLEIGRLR
Sequence of LNX1_2, Q8TBB1 (Q8TBB1 371-470): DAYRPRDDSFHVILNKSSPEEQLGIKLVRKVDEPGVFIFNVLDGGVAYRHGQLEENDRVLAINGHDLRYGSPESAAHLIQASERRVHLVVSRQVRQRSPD
Sequence of Inadl_10, Q8NI35 (Q8NI35 1673-1763): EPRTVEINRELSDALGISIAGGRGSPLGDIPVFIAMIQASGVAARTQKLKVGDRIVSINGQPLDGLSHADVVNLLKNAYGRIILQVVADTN
Sequence of LNX1_1, Q8TBB1 (Q8TBB1 261-371): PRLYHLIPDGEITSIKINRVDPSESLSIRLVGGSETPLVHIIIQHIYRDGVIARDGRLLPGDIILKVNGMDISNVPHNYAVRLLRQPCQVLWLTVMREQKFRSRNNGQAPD
Sequence of DLG5_1, Q8TDM6 (Q8TDM6 617-713): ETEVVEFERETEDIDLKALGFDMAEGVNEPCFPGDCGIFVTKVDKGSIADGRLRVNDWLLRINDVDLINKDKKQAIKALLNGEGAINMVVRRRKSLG
Sequence of MAGI2_6, Q86UL8 (Q86UL8 1141-1229): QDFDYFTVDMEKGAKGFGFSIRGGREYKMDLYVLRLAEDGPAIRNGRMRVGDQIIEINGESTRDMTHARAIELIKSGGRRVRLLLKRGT
Sequence of GRASP, Q7Z6J2 (Q7Z6J2 96-193): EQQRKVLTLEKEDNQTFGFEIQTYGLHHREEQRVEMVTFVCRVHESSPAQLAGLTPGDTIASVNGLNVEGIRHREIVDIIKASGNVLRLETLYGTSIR
Sequence of AHNAK1, Q09666 (Q09666 4-100): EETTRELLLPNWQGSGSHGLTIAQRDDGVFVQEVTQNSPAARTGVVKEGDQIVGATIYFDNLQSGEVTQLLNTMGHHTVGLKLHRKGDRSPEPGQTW
Sequence of FRMPD3, Q5JV73 (Q5JV73 12-100): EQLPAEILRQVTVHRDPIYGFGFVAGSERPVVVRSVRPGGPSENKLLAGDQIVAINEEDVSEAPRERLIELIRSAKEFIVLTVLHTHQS

Row | Binder | pKd (APBA1_2, Q02410) | pKd (GRASP, Q7Z6J2) | pKd (Inadl_10, Q8NI35) | pKd (DLG5_1, Q8TDM6) | pKd (SNTG2, Q9NY99) | pKd (DLG3_1, Q92796) | pKd (LIMK2, P53671) | pKd (APBA2_1, Q99767) | pKd (LNX1_1, Q8TBB1) | pKd (RAPGEF6, Q8TEU7) | pKd (TX1BP3, O14907) | pKd (LIN7A, O14910) | pKd (PCLO, Q9Y6V0) | pKd (Inadl_9, Q8NI35) | pKd (MAGI2_6, Q86UL8) | pKd (FRMPD2_3, Q68DX3) | pKd (LIN7C, Q9NUP9) | pKd (LNX1_2, Q8TBB1) | pKd (DLG1_2, Q12959) | pKd (GRIP2_7, Q9C0E4) | also measured
1 | EALLQMESVA [CAVIN3, Q969G5] | 3.5 | below the threshold | below the threshold | below the threshold | below the threshold | below the threshold | below the threshold | below the threshold | 3.81 | below the threshold | below the threshold | below the threshold | below the threshold | below the threshold | below the threshold | below the threshold | below the threshold | below the threshold | below the threshold | below the threshold | pKd (DLG2_3, Q15700): 3.84; pKd (AHNAK1, Q09666): below the threshold; pKd (FRMPD3, Q5JV73): below the threshold; pKd (MAGI3_2, Q5TCQ9): below the threshold; pKd (ARHGEF11, O15085): below the threshold; pKd (PARD3B_1, Q8TEW8): below the threshold; pKd (HTRA2, O43464): below the threshold
2 | EKKTLIGIKL [GOT1L1, Q8NHS2] | below the threshold | below the threshold | below the threshold | below the threshold | below the threshold | below the threshold | below the threshold | below the threshold | below the threshold | below the threshold | below the threshold | below the threshold | below the threshold | below the threshold | below the threshold | below the threshold | below the threshold | below the threshold | below the threshold | below the threshold | pKd (DLG2_3, Q15700): below the threshold; pKd (AHNAK1, Q09666): below the threshold; pKd (FRMPD3, Q5JV73): below the threshold; pKd (MAGI3_2, Q5TCQ9): below the threshold; pKd (ARHGEF11, O15085): below the threshold; pKd (PARD3B_1, Q8TEW8): 4.74; pKd (HTRA2, O43464): below the threshold
3 | FNSYSLTGYV [CLDN2, P57739] | 4 | 3.82 | below the threshold | below the threshold | below the threshold | below the threshold | below the threshold | below the threshold | 3.94 | below the threshold | 4.3 | below the threshold | below the threshold | below the threshold | 3.72 | 4.28 | below the threshold | 4.19 | 3.49 | below the threshold | pKd (DLG2_3, Q15700): below the threshold; pKd (AHNAK1, Q09666): below the threshold; pKd (FRMPD3, Q5JV73): below the threshold; pKd (MAGI3_2, Q5TCQ9): 4.21; pKd (ARHGEF11, O15085): 3.94; pKd (PARD3B_1, Q8TEW8): 4.42; pKd (HTRA2, O43464): 4.48
4 | VKPQVSESKL [ACOT8, O14734] | below the threshold | below the threshold | below the threshold | below the threshold | 4.19 | below the threshold | below the threshold | below the threshold | below the threshold | below the threshold | below the threshold | below the threshold | below the threshold | below the threshold | below the threshold | below the threshold | below the threshold | below the threshold | below the threshold | below the threshold | pKd (DLG2_3, Q15700): 3.74; pKd (AHNAK1, Q09666): below the threshold; pKd (FRMPD3, Q5JV73): below the threshold; pKd (MAGI3_2, Q5TCQ9): 3.59; pKd (ARHGEF11, O15085): below the threshold; pKd (PARD3B_1, Q8TEW8): 3.69; pKd (HTRA2, O43464): below the threshold
5 | PRAEAEDSFL [PDGFRB, P09619] | 3.65 | 3.58 | below the threshold | 3.48 | below the threshold | below the threshold | below the threshold | 3.66 | 3.83 | below the threshold | 4.34 | 3.56 | below the threshold | below the threshold | 4.26 | 3.51 | below the threshold | below the threshold | 3.57 | below the threshold | pKd (DLG2_3, Q15700): below the threshold; pKd (AHNAK1, Q09666): below the threshold; pKd (FRMPD3, Q5JV73): 3.56; pKd (MAGI3_2, Q5TCQ9): below the threshold; pKd (ARHGEF11, O15085): 3.78; pKd (PARD3B_1, Q8TEW8): 4.55; pKd (HTRA2, O43464): below the threshold

Reference: paper PMC9482650, “Quantitative fragmentomics allow affinity mapping of interactomes” (Nature Communications, 2022)
